Experimental findings from paper PMC4612572 are described below.

In assay [1] the target is p766-Gravin (human (endogenous in U2OS; cells of Figure 2E-H not stated)) (UniProt Q02952). The experiment in a line: proximity ligation; in situ PLA in U2OS cells stably expressing the mother centriole marker myc-centriolin; signal at the mother spindle pole relative to the daughter spindle pole.
For assay [2] the target is unchanged. The experiment in a line: proximity ligation; in situ PLA with antibodies to p766-Gravin and to Aurora A or Plk1 in fixed cells at different stages of the cell cycle; integrated signal per cell normalised to interphase cells; n = 3 experiments.
Assay [3] deals with Gravin (human (endogenous in HEK293)) (UniProt Q02952).

Consider “polo-like kinase 1 (from UniProt P53350 1-603) (enzyme)”, for which the fold PLA signal, mother against daughter spindle pole in assay [1] is 2.35 fold. Further, the fold PLA signal, metaphase against interphase cells in assay [2] worked out at 10.3 fold.

B1: Aurora A (enzyme)
chain: MDRSKENCISGPVKATAPVGGPKRVLVTQQFPCQNPLPVNSGQAQRVLCPSNSSQRIPLQAQKLVSSHKPVQNQKQKQLQATSVPHPVSRPLNNTQKSKQPLPSAPENNPEEELASKQKNEESKKRQWALEDFEIGRPLGKGKFGNVYLAREKQSKFILALKVLFKAQLEKAGVEHQLRREVEIQSHLRHPNILRLYGYFHDATRVYLILEYAPLGTVYRELQKLSKFDEQRTATYITELANALSYCHSKRVIHRDIKPENLLLGSAGELKIADFGWSVHAPSSRRTTLCGTLDYLPPEMIEGRMHDEKVDLWSLGVLCYEFLVGKPPFEANTYQETYKRISRVEFTFPDFVTEGARDLISRLLKHNPSQRPMLREVLEHPWITANSSKPSNCQNKESASKQS
B1: in assay [3], the Kemptide (300 uM) phosphorylation (32P incorporation) in Gravin immune complexes isolated from mitotic lysates; share blocked by the Aurora A inhibitor VX-680 came to 33.5%. In addition, the fold PLA puncta, mother against daughter spindle pole in assay [1] came out at 4.16 fold. The molecule also came in with a fold PLA signal, metaphase against interphase cells in assay [2] of 3.86 fold.
